Reference: article PMC12375970, “Probing the extent of importin‐α targeting of the TAF8 NLS by eliminating its cationic net‐charge” (Protein Science : A Publication of the Protein Society, 2025)
Like-named read-outs stand apart in the source and are kept apart here. Each block holds one substance with its values, some of them ahead of it.

Key:
[1] = biological target: importin-alpha (Homo sapiens) (UniProt P52292); assay: ITC; conditions: cited from earlier work
[2] = biological target: mouse importin‐α paralog 2 (mImpα2) lacking the importin‐β‐binding (IBB) domain, residues 70–529 (mouse) (UniProt P52293); assay: MST; Monolith NT.115; RED‐NHS‐labelled mImpα2 at 60 nM titrated against NLS peptide 250 μM–7.6 nM; 20 mM Tris–HCl, 127 mM NaCl, pH 8.0, 0.5% Tween‐20; one‐binding site and two‐binding site model fits; apparent
[3] = biological target: murine importin-α isoform 2 (mImpα2) lacking the importin-β-binding (IBB) domain (mouse) (UniProt P52293); assay: MST; Monolith NT.115; RED-NHS-labelled mImpα2 at 60 nM titrated against a serial 1:1 dilution (250 µM-7.6 nM) of NLS peptide with 0.5% Tween-20; 20 mM Tris-HCl, 127 mM NaCl, pH 8.0; three repeats, mean ± SD; fitted with one-binding-site, two-binding-site and Hill models; apparent affinity
[4] = biological target: importin-beta (UniProt Q14974); conditions: cited from earlier work
Chain of importin-beta (Q14974 whole entry): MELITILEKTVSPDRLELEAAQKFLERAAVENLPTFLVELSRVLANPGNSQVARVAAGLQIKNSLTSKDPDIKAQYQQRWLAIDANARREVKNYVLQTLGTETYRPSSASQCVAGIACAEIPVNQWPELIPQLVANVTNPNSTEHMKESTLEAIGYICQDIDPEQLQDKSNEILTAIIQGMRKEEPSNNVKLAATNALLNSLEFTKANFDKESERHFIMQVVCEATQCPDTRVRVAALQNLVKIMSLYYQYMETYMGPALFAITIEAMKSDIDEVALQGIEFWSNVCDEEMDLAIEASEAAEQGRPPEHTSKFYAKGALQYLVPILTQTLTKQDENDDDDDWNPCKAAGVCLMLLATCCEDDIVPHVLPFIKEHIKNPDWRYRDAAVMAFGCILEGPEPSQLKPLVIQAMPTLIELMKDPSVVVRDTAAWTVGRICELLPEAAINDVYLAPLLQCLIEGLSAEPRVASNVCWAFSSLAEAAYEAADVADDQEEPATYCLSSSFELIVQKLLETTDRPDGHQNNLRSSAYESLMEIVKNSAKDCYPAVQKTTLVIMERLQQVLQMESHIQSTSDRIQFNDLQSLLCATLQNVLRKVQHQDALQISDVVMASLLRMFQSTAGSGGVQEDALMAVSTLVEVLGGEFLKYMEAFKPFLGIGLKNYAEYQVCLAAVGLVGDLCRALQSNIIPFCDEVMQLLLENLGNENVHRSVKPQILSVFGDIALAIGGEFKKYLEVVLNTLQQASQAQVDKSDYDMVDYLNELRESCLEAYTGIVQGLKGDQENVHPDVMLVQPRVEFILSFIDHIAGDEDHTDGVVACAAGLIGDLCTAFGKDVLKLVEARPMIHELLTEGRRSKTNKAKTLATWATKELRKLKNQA

[5] = biological target: importin-alpha (Homo sapiens) (UniProt P52292); conditions: cited from earlier work

Substance: TAF8 NLS 297-310 (from UniProt Q7Z7C8)
Kd [1]: 10.4 µM

KD1 (site 1, two‐binding site model) [2]: 1 µM
KD2 (site 2, two‐binding site model) [2]: 1 µM
Substance: TAF8 NLS peptide (TAF8 residues 297–305, …)

Kd [3]: 1210 nM
Substance: TAF8 NLS peptide (…, residues 297-305)

Substance: importin-alpha IBB domain IBB (from UniProt P52292)
Kd [4]: 10 nM
Kd [5]: 14 µM
